Results reported in US20240279325A1 (Chugai, published 2024).
Each block holds one binder with its values, some of them ahead of it.

Experiments:
human FcγRIIb = target: T1, human FcγRIIb (human, UniProt P31994 43-217); assay: SPR (Biacore), amount bound against IL6R-F652/IL6R-L x 100
T1 sequence: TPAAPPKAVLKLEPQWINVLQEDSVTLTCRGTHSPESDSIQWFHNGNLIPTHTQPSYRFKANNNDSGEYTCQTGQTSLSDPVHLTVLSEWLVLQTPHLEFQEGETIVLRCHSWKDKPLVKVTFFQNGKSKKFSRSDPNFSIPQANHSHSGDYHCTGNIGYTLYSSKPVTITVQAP
Excerpt: (§1) These variants were expressed and purified by the method of Reference Example 1. These Fc variants are called PD variants. Interactions of each PD variant with FcγRIIa type R (allotype R131) and FcγRIIb were comprehensively evaluated by the method of Reference Example 2.

[1] = target: T2, human FcγRIIa type R (allotype R131) (human, UniProt P12318 36-217); assay: as above
T2 construct: also called FcγRIIaR; R-type FcγRIIa
T2 chain: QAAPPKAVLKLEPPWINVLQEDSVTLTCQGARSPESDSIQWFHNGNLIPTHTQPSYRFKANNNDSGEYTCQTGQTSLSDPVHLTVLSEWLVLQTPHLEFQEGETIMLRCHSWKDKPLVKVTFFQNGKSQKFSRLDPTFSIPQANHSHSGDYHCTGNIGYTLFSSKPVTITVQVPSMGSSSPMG
Excerpt: as §1

[2] = target: T3, FcγRIIa type R (allotype R131) extracellular domain with C-terminal His tag (human, UniProt P12318 34-217); assay: SPR; KD of IL6R-B3/IL6R-L divided by KD of the variant
T3 construct: extracellular domain; also called FcγRIIaR; FcγRIIa R type
T3 sequence (looked up): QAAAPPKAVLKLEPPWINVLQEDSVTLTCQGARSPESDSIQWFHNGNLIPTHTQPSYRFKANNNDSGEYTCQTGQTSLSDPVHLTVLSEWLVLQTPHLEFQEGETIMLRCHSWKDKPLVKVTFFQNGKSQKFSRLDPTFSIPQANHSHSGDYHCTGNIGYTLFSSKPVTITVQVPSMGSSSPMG

[3] = target: T4, FcγRIIb extracellular domain with C-terminal His tag (human, UniProt P31994 43-217); assay: as above
T4 construct: extracellular domain
T4 sequence (looked up): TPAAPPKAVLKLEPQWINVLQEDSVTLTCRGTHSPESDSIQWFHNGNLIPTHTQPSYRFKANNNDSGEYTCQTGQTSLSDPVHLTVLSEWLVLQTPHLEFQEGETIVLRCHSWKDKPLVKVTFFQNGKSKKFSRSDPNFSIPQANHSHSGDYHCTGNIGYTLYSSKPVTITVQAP

[4] = target: T4, FcγRIIb extracellular domain with …; assay: SPR; KD for FcγRIIaR divided by KD for FcγRIIb
[5] = target: T5, FcγRIIa type H (allotype H131) extracellular domain with C-terminal His tag (human, UniProt P12318 34-217); assay: SPR (Biacore), antibody captured, FcγR as analyte
T5 construct: extracellular domain; also called FcγRIIaH; FcγRIIa H type
T5 sequence (looked up): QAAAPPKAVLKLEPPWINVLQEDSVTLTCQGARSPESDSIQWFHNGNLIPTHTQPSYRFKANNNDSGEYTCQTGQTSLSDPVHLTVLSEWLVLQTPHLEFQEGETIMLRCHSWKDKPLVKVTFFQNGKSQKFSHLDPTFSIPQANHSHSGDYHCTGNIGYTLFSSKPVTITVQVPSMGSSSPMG

[6] = target: T4, FcγRIIb extracellular domain with …; assay: SPR (Biacore), antibody captured, FcγR as analyte
[7] = target: T4, FcγRIIb extracellular domain with …; assay: SPR; KD for FcγRIIaH divided by KD for FcγRIIb
[8] = target: T6, human FcγRIa extracellular domain with C-terminal His tag (human, UniProt P12314 16-292); assay: SPR (Biacore), captured antibody, FcγR analyte
T6 construct: extracellular domain; also called FrgRIa
T6 sequence (P12314 16-292): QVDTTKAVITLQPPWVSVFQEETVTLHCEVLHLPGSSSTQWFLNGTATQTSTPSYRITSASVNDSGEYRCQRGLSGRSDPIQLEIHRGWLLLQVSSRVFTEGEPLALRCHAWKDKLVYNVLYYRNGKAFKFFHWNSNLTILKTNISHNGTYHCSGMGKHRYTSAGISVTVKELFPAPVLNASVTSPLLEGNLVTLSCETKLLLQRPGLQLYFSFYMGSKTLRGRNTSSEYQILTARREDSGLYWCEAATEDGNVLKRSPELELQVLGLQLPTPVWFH

[9] = target: T7, human FcγRIIa type H (allotype H131) extracellular domain with C-terminal His tag (human, UniProt P12318 34-217); assay: SPR (Biacore), captured antibody, FcγR analyte
T7 construct: extracellular domain; also called FcγRIIaH; FrgRIIaH
T7 sequence (looked up): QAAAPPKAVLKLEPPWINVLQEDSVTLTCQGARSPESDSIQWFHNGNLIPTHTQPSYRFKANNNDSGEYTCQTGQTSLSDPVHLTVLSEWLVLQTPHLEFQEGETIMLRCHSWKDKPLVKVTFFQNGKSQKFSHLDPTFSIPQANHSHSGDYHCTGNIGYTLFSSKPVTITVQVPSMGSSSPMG

[10] = target: T8, human FcγRIIa type R (allotype R131) extracellular domain with C-terminal His tag (human, UniProt P12318 34-217); assay: SPR (Biacore), captured antibody, FcγR analyte
T8 construct: extracellular domain; also called FcγRIIaR; FrgRIIaR
T8 sequence (looked up): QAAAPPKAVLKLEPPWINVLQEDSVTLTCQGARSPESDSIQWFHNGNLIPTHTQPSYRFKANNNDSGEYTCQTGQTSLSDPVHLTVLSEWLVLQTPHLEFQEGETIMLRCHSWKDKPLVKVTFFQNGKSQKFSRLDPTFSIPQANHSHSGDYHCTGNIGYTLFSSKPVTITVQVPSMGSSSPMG

[11] = target: T9, human FcγRIIIa type V (allotype V158) extracellular domain with C-terminal His tag (human, UniProt P08637 17-208); assay: SPR (Biacore), captured antibody, FcγR analyte
T9 construct: extracellular domain; also called FcγRIIIaV; FrgRIIIaV
T9 sequence (P08637 17-208 F176V): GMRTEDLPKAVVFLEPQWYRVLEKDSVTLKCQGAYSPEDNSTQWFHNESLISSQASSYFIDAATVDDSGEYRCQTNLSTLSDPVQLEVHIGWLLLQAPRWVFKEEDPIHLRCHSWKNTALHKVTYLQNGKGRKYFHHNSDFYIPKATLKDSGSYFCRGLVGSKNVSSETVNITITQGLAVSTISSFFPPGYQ

- relative binding activity (human FcγRIIb): 100 IL6R-F652/IL6R-L = 100
- relative binding activity [1]: 100 IL6R-F652/IL6R-L = 100
B1: IL6R-F652/IL6R-L (antibody, human IgG1, kappa)
heavy: QVQLQESGPGLVKPSETLSLTCAVSGHSISHDHAWSWVRQPPGEGLEWIGFISYSGITNYNPSLQGRVTISRDNSKNTLYLQMNSLRAEDTAVYYCARSLARTTAMDYWGEGTLVTVSSASTKGPSVFPLAPSSKSTSGGTAALGCLVKDYFPEPVTVSWNSGALTSGVHTFPAVLQSSGLYSLSSVVTVPSSSLGTQTYICNVNHKPSNTKVDKKVEPKSCDKTHTCPPCPAPELLGGDSVFLFPPKPKDTLYISRTPEVTCVVVDVSHEDPEVKFNWYVDGVEVHNAKTKPREEQYNSTYRVVSVLTVLHQDWLNGKEYKCKVSNKALPAPIEKTISKAKGQPREPQVYTLPPSRDELTKNQVSLTCLVKGFYPSDIAVEWESNGQPENNYKTTPPVLDSDGSFFLYSKLTVDKSRWQQGNVFSCSVMHEALHYHYTQKSLSLSP
light: not shown
notes: copies: 2 + 2

- KD(IIaR) OF PARENT POLYPEPTIDE/KD(IIaR) OF ALTERED POLYPEPTIDE [2]: 4.3
- KD(IIb) OF PARENT POLYPEPTIDE/KD(IIb) OF ALTERED POLYPEPTIDE [3]: 471
- KD(IIaR)/KD(IIb) [4]: 38.6
- Kd [5]: 54 µM
- Kd [6]: 0.0065 µM
- KD(IIaH)/KD(IIb) [7]: 821
B2: IL6R-BP494/IL6R-L (antibody, human IgG1, kappa, name in EU numbering)
heavy: QVQLQESGPGLVKPSETLSLTCAVSGHSISHDHAWSWVRQPPGEGLEWIGFISYSGITNYNPSLQGRVTISRDNSKNTLYLQMNSLRAEDTAVYYCARSLARTTAMDYWGEGTLVTVSSASTKGPSVFPLAPSSKSTSGGTAALGCLVKDYFPEPVTVSWNSGALTSGVHTFPAVLQSSGLYSLSSVVTVPSSSLGTQTYICNVNHKPSNTKVDKKVEPKSCDKTHTCPPCPAPELLGDDSVFLFPPKPKDTLMISRTPEVTCVVVDVAEEDGEVKFNWYVDGVEVHNAKTKPREEQDNSTYRVVSVLTVLHQDWLNGKEYKCKVSNKALPRPIEKTISKAKGQPREPQVYTLPPSRDELTKNQVSLTCLVKGFYPSDIAVEWESNGQPENNYKTTPPVLDSDGSFFLYSKLTVDKSRWQQGNVFSCSVMHEALHNHYTQESLSLSP
light: not shown
notes: copies: 2 + 2

- relative binding activity [8]: 68 % of IL6R-BF648/IL6R-L binding
- relative binding activity [9]: 344 % of IL6R-BF648/IL6R-L binding
- relative binding activity [10]: 661 % of IL6R-BF648/IL6R-L binding
- relative binding activity [11]: 221 % of IL6R-BF648/IL6R-L binding
B3: IL6R-BP195/IL6R-L (antibody, human IgG1, kappa, name in EU numbering)
heavy: QVQLQESGPGLVKPSETLSLTCAVSGHSISHDHAWSWVRQPPGEGLEWIGFISYSGITNYNPSLQGRVTISRDNSKNTLYLQMNSLRAEDTAVYYCARSLARTTAMDYWGEGTLVTVSSASTKGPSVFPLAPSSKSTSGGTAALGCLVKDYFPEPVTVSWNSGALTSGVHTFPAVLQSSGLYSLSSVVTVPSSSLGTQTYICNVNHKPSNTKVDKKVEPKSCDKTHTCPPCPAPDYLGDDSVFLFPPKPKDTLMISRTPEVTCVVVDVSDEDGEVKFNWYVDGVEVHNAKTKPREEQDNSTYRVVSVLTVLHQDWLNGKEYKCKVSNAALPKPIEKTISKAKGQPREPQVYTLPPSRDELTKNQVSLTCLVKGFYPSDIAVEWESNGQPENNYKTTPPVLDSDGSFFLYSKLTVDKSRWQQGNVFSCSVMHEALHNHYTQESLSLSP
light: not shown
notes: Alterations introduced into IL6R-B3, EU numbering; copies: 2 + 2
